Measurements as given in IntAct's records for PubMed 26365382.

B1: Zinc finger protein RFP (Homo sapiens), P14373 (parent)
chain: MASGSVAECLQQETTCPVCLQYFAEPMMLDCGHNICCACLARCWGTAETNVSCPQCRETFPQRHMRPNRHLANVTQLVKQLRTERPSGPGGEMGVCEKHREPLKLYCEEDQMPICVVCDRSREHRGHSVLPLEEAVEGFKEQIQNQLDHLKRVKDLKKRRRAQGEQARAELLSLTQMEREKIVWEFEQLYHSLKEHEYRLLARLEELDLAIYNSINGAITQFSCNISHLSSLIAQLEEKQQQPTRELLQDIGDTLSRAERIRIPEPWITPPDLQEKIHIFAQKCLFLTESLKQFTEKMQSDMEKIQELREAQLYSVDVTLDPDTAYPSLILSDNLRQVRYSYLQQDLPDNPERFNLFPCVLGSPCFIAGRHYWEVEVGDKAKWTIGVCEDSVCRKGGVTSAPQNGFWAVSLWYGKEYWALTSPMTALPLRTPLQRVGIFLDYDAGEVSFYNVTERCHTFTFSHATFCGPVRPYFSLSYSGGKSAAPLIICPMSGIDGFSGHVGNHGHSMETSP

Variants of: B1
Settings: with magl2_human MAGEL2, Q9UJ55
magl2_human MAGEL2, Q9UJ55, sequence (Q9UJ55 whole entry): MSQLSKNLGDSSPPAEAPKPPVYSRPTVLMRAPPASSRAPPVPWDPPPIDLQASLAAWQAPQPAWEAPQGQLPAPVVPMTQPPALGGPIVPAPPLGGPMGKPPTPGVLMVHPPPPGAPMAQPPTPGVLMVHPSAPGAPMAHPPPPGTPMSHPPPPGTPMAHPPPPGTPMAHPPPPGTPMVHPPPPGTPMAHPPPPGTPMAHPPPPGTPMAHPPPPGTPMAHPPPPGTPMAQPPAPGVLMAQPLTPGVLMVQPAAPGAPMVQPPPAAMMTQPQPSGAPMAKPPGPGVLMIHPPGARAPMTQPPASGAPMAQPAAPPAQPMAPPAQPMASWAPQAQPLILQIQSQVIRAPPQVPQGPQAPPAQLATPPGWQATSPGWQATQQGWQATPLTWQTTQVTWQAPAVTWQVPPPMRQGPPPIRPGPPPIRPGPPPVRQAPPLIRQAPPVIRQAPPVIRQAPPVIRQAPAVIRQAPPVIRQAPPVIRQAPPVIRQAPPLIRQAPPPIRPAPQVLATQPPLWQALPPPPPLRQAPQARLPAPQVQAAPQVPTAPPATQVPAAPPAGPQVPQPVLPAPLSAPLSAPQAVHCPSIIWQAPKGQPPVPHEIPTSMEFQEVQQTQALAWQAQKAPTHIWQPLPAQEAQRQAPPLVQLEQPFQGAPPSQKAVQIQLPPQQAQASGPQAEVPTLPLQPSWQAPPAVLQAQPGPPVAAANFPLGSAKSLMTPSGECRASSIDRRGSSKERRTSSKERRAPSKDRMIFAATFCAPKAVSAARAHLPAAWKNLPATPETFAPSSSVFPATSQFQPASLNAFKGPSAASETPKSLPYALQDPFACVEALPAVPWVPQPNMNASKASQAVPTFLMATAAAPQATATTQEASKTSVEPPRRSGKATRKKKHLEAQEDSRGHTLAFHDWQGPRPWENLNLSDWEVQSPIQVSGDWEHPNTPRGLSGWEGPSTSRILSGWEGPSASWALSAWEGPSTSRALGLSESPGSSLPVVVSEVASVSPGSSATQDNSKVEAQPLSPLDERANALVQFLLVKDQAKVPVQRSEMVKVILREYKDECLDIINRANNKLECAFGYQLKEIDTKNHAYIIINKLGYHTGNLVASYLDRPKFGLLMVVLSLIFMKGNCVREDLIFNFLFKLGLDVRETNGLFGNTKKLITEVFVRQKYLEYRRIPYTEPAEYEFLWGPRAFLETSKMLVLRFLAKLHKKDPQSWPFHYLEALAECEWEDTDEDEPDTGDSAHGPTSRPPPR

effect of a mutation on the interaction	Variant
with no effect	MASGSVAECLQQETTCPVCLQYFAEPMMLDCGHNICCACLARCWGTAETNVSCPQCRETFPQRHMRPNRHLANVTQLVKQLRTERPSGPGGEMGVCEKHREPLKLYCEEDQMPICVVCDRSREHRGHSVLPLEEAVEGFKEQIQNQLDHLKRVKDLKKRRRAQGEQARAELLSLTQMEREKIVWEFEQLYHSLKEHEYRLLARLEELDLAIYNSINGAITQFSCNISHLSSLIAQLEEKQQQPTRELLQDIGDTLSRAERIRIPEPWITPPDLQEKIHIFAQKCLFLTESLKQFTEKMQSDMERIQELREAQLYSVDVTLDPDTAYPSLILSDNLRQVRYSYLQQDLPDNPERFNLFPCVLGSPCFIAGRHYWEVEVGDRARWTIGVCEDSVCRKGGVTSAPQNGFWAVSLWYGKEYWALTSPMTALPLRTPLQRVGIFLDYDAGEVSFYNVTERCHTFTFSHATFCGPVRPYFSLSYSGGKSAAPLIICPMSGIDGFSGHVGNHGHSMETSP [K304R;K380R;K382R]
